In the experiment the target is T1, B3GNT2 (Homo sapiens, UniProt Q9NY97).
T1 construct: The respective ORFs of candidate genes [CD274 (NM_014143), MCL1 (NM_021960), JUNB (NM_002229), and B3GNT2 (NM_006577)] were synthesized; expressed in transfected cells; host or cells: A375 melanoma cells (lentiviral ORF overexpression)
T1 sequence (Q9NY97 1-397): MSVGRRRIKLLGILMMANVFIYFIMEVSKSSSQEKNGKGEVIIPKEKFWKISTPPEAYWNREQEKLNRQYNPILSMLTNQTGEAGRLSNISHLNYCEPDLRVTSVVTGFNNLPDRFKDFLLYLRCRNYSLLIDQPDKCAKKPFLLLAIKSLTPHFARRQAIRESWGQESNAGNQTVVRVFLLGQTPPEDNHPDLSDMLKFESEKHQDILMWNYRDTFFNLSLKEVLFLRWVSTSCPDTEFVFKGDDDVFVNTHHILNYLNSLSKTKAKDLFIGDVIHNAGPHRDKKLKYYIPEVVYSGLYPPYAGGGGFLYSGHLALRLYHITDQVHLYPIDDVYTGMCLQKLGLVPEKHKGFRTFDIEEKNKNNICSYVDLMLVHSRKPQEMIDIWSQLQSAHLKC
Description: Co-IP of FLAG-tagged B3GNT2 followed by mass spectrometry. As to conditions: Co-IP followed by mass spectrometry of B3GNT2; for C-term flag / C-term IgG: C-term tag; for C-term flag / N-term FLAG: FLAG pull-down; for C-term IgG / N-term IgG: IgG pull-down; for N-term FLAG / N-term IgG: N-term tag. The class given is cell-based. On the set-up: C-term IgG / C-term flag: unit not given here. The method in brief:
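Co-purifying proteins were identified by fractionated nano-LC–MS/MS on an Orbitrap Elite, run data-dependent. Beforehand, lysates in 1% Triton X-100/HEPES buffer were incubated overnight at 4° C with anti-FLAG or […] and pulled down on Protein A/G magnetic beads for 4 h. Duplicate biological replicates.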

B1: PUF60 (protein)
chain: MATATIALQVNGQQGGGSEPAAAAAVVAAGDKWKPPQGTDSIKMENGQSTAAKLGLPPLTPEQQEALQKAKKYAMEQSIKSVLVKQTIAHQQQQLTNLQMAAVTMGFGDPLSPLQSMAAQRQRALAIMCRVYVGSIYYELGEDTIRQAFAPFGPIKSIDMSWDSVTMKHKGFAFVEYEVPEAAQLALEQMNSVMLGGRNIKVGRPSNIGQAQPIIDQLAEEARAFNRIYVASVHQDLSDDDIKSVFEAFGKIKSCTLARDPTTGKHKGYGFIEYEKAQSSQDAVSSMNLFDLGGQYLRVGKAVTPPMPLLTPATPGGLPPAAAVAAAAATAKITAQEAVAGAAVLGTLGTPGLVSPALTLAQPLGTLPQAVMAAQAPGVITGVTPARPPIPVTIPSVGVVNPILASPPTLGLLEPKKEKEEEELFPESERPEMLSEQEHMSISGSSARHMVMQKLLRKQESTVMVLRNMVDPKDIDDDLEGEVTEECGKFGAVNRVIIYQEKQGEEEDAEIIVKIFVEFSIASETHKAIQALNGRWFAGRKVVAEVYDQERFDNSDLSA
Take B1: the C-term flag is on record as 6, the “C-term IgG” value is reported as 5, the “N-term FLAG” value was found to be 6 and the “N-term IgG” value was 5.

B2: TM9SF1 (protein)
chain: PGVEGVTHYKAGDPVILYVNKVGPYHNPQETYHYYQLPVCCPEKIRHKSLSLGEVLDGDRMAESLYEIRFRENVEKRILCHMQLSSAQVEQLRQAIEELYYFEFVVDDLPIRGFVGYMEESGFLPHSHKIGLWTHLDFHLEFHGDRIIFANVSVRDVKPHSLDGLRPDEFLGLTHTYSVRWSETSVERRSDRRRGDDGGFFPRTLEIHWLSIINSMVLVFLLVGFVAVILMRVLRNDLARYNLDEETTSAGSGDDFDQGDNGWKIIHTDVFRFPPYRGLLCAVLGVGAQFLALGTGIIVMALLGMFNVHRHGAINSAAILLYALTCCISGYVSSHFYRQIGGERWVWNIILTTSLFSVPFFLTWSVVNSVHWANGSTQALPATTILLLLTVWLLVGFPLTVIGGIFGKNNASPFDAPCRTKNIAREIPPQPWYKSTVIHMTVGGFLPFRYPPFIPWLLLSGS
In the case of B2, the C-term flag is reported as 4, the “C-term IgG” value amounted to 0, the “N-term FLAG” value stood at 0 and the “N-term IgG” value was 0.

B3: COPA (protein)
chain: MLTKFETKSARVKGLSFHPKRPWILTSLHNGVIQLWDYRMCTLIDKFDEHDGPVRGIDFHKQQPLFVSGGDDYKIKVWNYKLRRCLFTLLGHLDYIRTTFFHHEYPWILSASDDQTIRVWNWQSRTCVCVLTGHNHYVMCAQFHPTEDLVVSASLDQTVRVWDISGLRKKNLSPGAVESDVRGITGVDLFGTTDAVVKHVLEGHDRGVNWAAFHPTMPLIVSGADDRQVKIWRMNESKAWEVDTCRGHYNNVSCAVFHPRQELILSNSEDKSIRVWDMSKRTGVQTFRRDHDRFWVLAAHPNLNLFAAGHDGGMIVFKLERERPAYAVHGNMLHYVKDRFLRQLDFNSSKDVAVMQLRSGSKFPVFNMSYNPAENAVLLCTRASNLENSTYDLYTIPKDADSQNPDAPEGKRSSGLTAVWVARNRFAVLDRMHSLLIKNLKNEITKKVQVPNCDEIFYAGTGNLLLRDADSITLFDVQQKRTLASVKISKVKYVIWSADMSHVALLAKHAIVICNRKLDALCNIHENIRVKSGAWDESGVFIYTTSNHIKYAVTTGDHGIIRTLDLPIYVTRVKGNNVYCLDRECRPRVLTIDPTEFKFKLALINRKYDEVLHMVRNAKLVGQSIIAYLQKKGYPEVALHFVKDEKTRFSLALECGNIEIALEAAKALDDKNCWEKLGEVALLQGNHQIVEMCYQRTKNFDKLSFLYLITGNLEKLRKMMKIAEIRKDMSGHYQNALYLGDVSERVRILKNCGQKSLAYLTAATHGLDEEAESLKETFDPEKETIPDIDPNAKLLQPPAPIMPLDTNWPLLTVSKGFFEGTIASKGKGGALAADIDIDTVGTEGWGEDAELQLDEDGFVEATEGLGDDALGKGQEEGGGWDVEEDLELPPELDISPGAAGGAEDGFFVPPTKGTSPTQIWCNNSQLPVDHILAGSFETAMRLLHDQVGVIQFGPYKQLFLQTYARGRTTYQALPCLPSMYGYPNRNWKDAGLKNGVPAVGLKLNDLIQRLQLCYQLTTVGKFEEAVEKFRSILLSVPLLVVDNKQEIAEAQQLITICREYIVGLSVETERKKLPKETLEQQKRICEMAAYFTHSNLQPVHMILVLRTALNLFFKLKNFKTAATFARRLLELGPKPEVAQQTRKILSACEKNPTDAYQLNYDMHNPFDICAASYRPIYRGKPVEKCPLSGACYSPEFKGQICRVTTVTEIGKDVIGLRISPLQFR
In the case of B3, the C-term flag is reported as 2, the “C-term IgG” value is on record as 0, the “N-term FLAG” value turned out to be 2 and the “N-term IgG” value is given as 0.

B4: C1orf68 (protein)
chain: MCDQQKQPQFPPSCVKGSGLGAGQGSNGASVKCPVPCQTQTVCVTGPAPCPTQTYVKYQVPCQTQTYVKCPAPCQRTYVKYPTPCQTYVKCPAPCQTTYVKCPTPCQTYVKCPAPCQMTYIKSPAPCQTQTCYVQGASPCQSYYVQAPASGSTSQYCVTDPCSAPCSTSYCCLAPRTFGVSPLRRWIQRPQNCNTGSSGCCENSGSSGCCGSGGCGCSCGCGSSGCCCLGIIPMRSRGPACCDHEDDCCC
As for B4, the C-term flag worked out at 2, the “C-term IgG” value was 4, the “N-term FLAG” value turned out to be 13 and the “N-term IgG” value is listed as 0.

B5: RBM14 (protein)
chain: MKIFVGNVDGADTTPEELAALFAPYGTVMSCAVMKQFAFVHMRENAGALRAIEALHGHELRPGRALVVEMSRPRPLNTWKIFVGNVSAACTSQELRSLFERRGRVIECDVVKDYAFVHMEKEADAKAAIAQLNGKEVKGKRINVELSTKGQKKGPGLAVQSGDKTKKPGAGDTAFPGTGGFSATFDYQQAFGNSTGGFDGQARQPTPPFFGRDRSPLRRSPPRASYVAPLTAQPATYRAQPSVSLGAAYRAQPSASLGVGYRTQPMTAQAASYRAQPSVSLGAPYRGQLASPSSQSAAASSLGPYGGAQPSASALSSYGGQAAAASSLNSYGAQGSSLASYGNQPSSYGAQAASSYGVRAAASSYNTQGAASSLGSYGAQAASYGAQSAASSLAYGAQAASYNAQPSASYNAQSAPYAAQQAASYSSQPAAYVAQPATAAAYASQPAAYAAQATTPMAGSYGAQPVVQTQLNSYGAQASMGLSGSYGAQSAAAATGSYGAAAAYGAQPSATLAAPYRTQSSASLAASYAAQQHPQAAASYRGQPGNAYDGAGQPSAAYLSMSQGAVANANSTPPPYERTRLSPPRASYDDPYKKAVAMSKRYGSDRRLAELSDYRRLSESQLSFRRSPTKSSLDYRRLPDAHSDYARYSGSYNDYLRAAQMHSGYQRRM
As to B5, the C-term flag was found to be 2, the “C-term IgG” value is recorded as 0, the “N-term FLAG” value stood at 3 and the “N-term IgG” value worked out at 4.

B6: KRT6B (protein)
chain: ASTSTTIRSHSSSRRGFSANSARLPGVSRSGFSSISVSRSRGSGGLGGACGGAGFGSRSLYGLGGSKRISIGGGSCAISGGYGSRAGGSYGFGGAGSGFGFGGGAGIGFGLGGGAGLAGGFGGPGFPVCPPGGIQEVTVNQSLLTPLNLQIDPAIQRVRAEEREQIKTLNNKFASFIDKVRFLEQQNKVLDTKWTLLQEQGTKTVRQNLEPLFEQYINNLRRQLDNIVGERGRLDSELRNMQDLVEDLKNKYEDEINKRTAAENEFVTLKKDVDAAYMNKVELQAKADTLTDEINFLRALYDAELSQMQTHISDTSVVLSMDNNRNLDLDSIIAEVKAQYEEIAQRSRAEAESWYQTKYEELQITAGRHGDDLRNTKQEIAEINRMIQRLRSEIDHVKKQCANLQAAIADAEQRGEMALKDAKNKLEGLEDALQKAKQDLARLLKEYQELMNVKLALDVEIATYRKLLEGEECRLNGEGVGQVNISVVQSTVSSGYGGASGVGSGLGLGGGSSYSYGSGLGVGGGFSSSSGRATGGGLSSVGGGSSTIKYTTTSSSSRKSYKH
On to B6, for which the C-term flag stood at 331, the “C-term IgG” value turned out to be 295, the “N-term FLAG” value is 370 and the “N-term IgG” value is recorded as 316.

For the origin of these results see patent US20240261333A1, “NOVEL TARGETS FOR ENHANCING ANTI-TUMOR IMMUNITY” (THE BROAD INSTITUTE, INC., priority 2021, published 2024).
